What was measured:
[1] = molecular target: binding partner of C5A (XPA23); experiment: Biacore, K-off
[2] = molecular target: binding partner of C5A (XPA23); experiment: Biacore

Binder | fold difference in affinity vs original [1] [fold] | fold affinity vs original [2] [fold] | fold difference in affinity vs original [2] [fold]
C5A (XPA23) VH G56Q (antibody, V domains shown) VH: EVQLLESGGGLVQPGGSLRLSCAASGFTFSKYFMFWVRQAPGKGLEWVSVISPSGQMTRYADSVKGRFTISRDNSKNTLYLQMNSLRAEDTAVYYCARVGYGGNSDYWGQGTLVTVSS VL: DIQMTQSPSSVSASVGDRLTIICRASQDINRWLAWYQQTPGNAPKLLIHSATSLQSGVPSRFSGSGSGTDFTLTINSLQPEDFATYYCQQADSFPLTFGGGTKVEIK | 1.31 | 1.31 | 
C5A (XPA23) VH M57Y (antibody, V domains shown) VH: EVQLLESGGGLVQPGGSLRLSCAASGFTFSKYFMFWVRQAPGKGLEWVSVISPSGGYTRYADSVKGRFTISRDNSKNTLYLQMNSLRAEDTAVYYCARVGYGGNSDYWGQGTLVTVSS VL: DIQMTQSPSSVSASVGDRLTIICRASQDINRWLAWYQQTPGNAPKLLIHSATSLQSGVPSRFSGSGSGTDFTLTINSLQPEDFATYYCQQADSFPLTFGGGTKVEIK | 0.86 | 0.86 | 
C5A (XPA23) VH M57K (antibody, V domains shown) VH: EVQLLESGGGLVQPGGSLRLSCAASGFTFSKYFMFWVRQAPGKGLEWVSVISPSGGKTRYADSVKGRFTISRDNSKNTLYLQMNSLRAEDTAVYYCARVGYGGNSDYWGQGTLVTVSS VL: DIQMTQSPSSVSASVGDRLTIICRASQDINRWLAWYQQTPGNAPKLLIHSATSLQSGVPSRFSGSGSGTDFTLTINSLQPEDFATYYCQQADSFPLTFGGGTKVEIK | 0.04 | 0.04 | 
C5A (XPA23) VH R59K (antibody, V domains shown) VH: EVQLLESGGGLVQPGGSLRLSCAASGFTFSKYFMFWVRQAPGKGLEWVSVISPSGGMTKYADSVKGRFTISRDNSKNTLYLQMNSLRAEDTAVYYCARVGYGGNSDYWGQGTLVTVSS VL: DIQMTQSPSSVSASVGDRLTIICRASQDINRWLAWYQQTPGNAPKLLIHSATSLQSGVPSRFSGSGSGTDFTLTINSLQPEDFATYYCQQADSFPLTFGGGTKVEIK | 0.94 | 0.94 | 
C5A (XPA23) VH M57T (antibody, V domains shown) VH: EVQLLESGGGLVQPGGSLRLSCAASGFTFSKYFMFWVRQAPGKGLEWVSVISPSGGTTRYADSVKGRFTISRDNSKNTLYLQMNSLRAEDTAVYYCARVGYGGNSDYWGQGTLVTVSS VL: DIQMTQSPSSVSASVGDRLTIICRASQDINRWLAWYQQTPGNAPKLLIHSATSLQSGVPSRFSGSGSGTDFTLTINSLQPEDFATYYCQQADSFPLTFGGGTKVEIK | 0.06 |  | 0.06
C5A (XPA23) VH M57N (antibody, V domains shown) VH: EVQLLESGGGLVQPGGSLRLSCAASGFTFSKYFMFWVRQAPGKGLEWVSVISPSGGNTRYADSVKGRFTISRDNSKNTLYLQMNSLRAEDTAVYYCARVGYGGNSDYWGQGTLVTVSS VL: DIQMTQSPSSVSASVGDRLTIICRASQDINRWLAWYQQTPGNAPKLLIHSATSLQSGVPSRFSGSGSGTDFTLTINSLQPEDFATYYCQQADSFPLTFGGGTKVEIK | 0.03 | 0.03 | 
C5A (XPA23) VH M57Q (antibody, V domains shown) VH: EVQLLESGGGLVQPGGSLRLSCAASGFTFSKYFMFWVRQAPGKGLEWVSVISPSGGQTRYADSVKGRFTISRDNSKNTLYLQMNSLRAEDTAVYYCARVGYGGNSDYWGQGTLVTVSS VL: DIQMTQSPSSVSASVGDRLTIICRASQDINRWLAWYQQTPGNAPKLLIHSATSLQSGVPSRFSGSGSGTDFTLTINSLQPEDFATYYCQQADSFPLTFGGGTKVEIK | 0.02 | 0.02 | 
C5A (XPA23) VH M57H (antibody, V domains shown) VH: EVQLLESGGGLVQPGGSLRLSCAASGFTFSKYFMFWVRQAPGKGLEWVSVISPSGGHTRYADSVKGRFTISRDNSKNTLYLQMNSLRAEDTAVYYCARVGYGGNSDYWGQGTLVTVSS VL: DIQMTQSPSSVSASVGDRLTIICRASQDINRWLAWYQQTPGNAPKLLIHSATSLQSGVPSRFSGSGSGTDFTLTINSLQPEDFATYYCQQADSFPLTFGGGTKVEIK | 0.08 | 0.08 | 
C5A (XPA23) VH G56Y (antibody, V domains shown) VH: EVQLLESGGGLVQPGGSLRLSCAASGFTFSKYFMFWVRQAPGKGLEWVSVISPSGYMTRYADSVKGRFTISRDNSKNTLYLQMNSLRAEDTAVYYCARVGYGGNSDYWGQGTLVTVSS VL: DIQMTQSPSSVSASVGDRLTIICRASQDINRWLAWYQQTPGNAPKLLIHSATSLQSGVPSRFSGSGSGTDFTLTINSLQPEDFATYYCQQADSFPLTFGGGTKVEIK | 1.27 | 1.27 | 
C5A (XPA23) VH M57S (antibody, V domains shown) VH: EVQLLESGGGLVQPGGSLRLSCAASGFTFSKYFMFWVRQAPGKGLEWVSVISPSGGSTRYADSVKGRFTISRDNSKNTLYLQMNSLRAEDTAVYYCARVGYGGNSDYWGQGTLVTVSS VL: DIQMTQSPSSVSASVGDRLTIICRASQDINRWLAWYQQTPGNAPKLLIHSATSLQSGVPSRFSGSGSGTDFTLTINSLQPEDFATYYCQQADSFPLTFGGGTKVEIK | 0.04 | 0.04 | 
C5A (XPA23) VH M57R (antibody, V domains shown) VH: EVQLLESGGGLVQPGGSLRLSCAASGFTFSKYFMFWVRQAPGKGLEWVSVISPSGGRTRYADSVKGRFTISRDNSKNTLYLQMNSLRAEDTAVYYCARVGYGGNSDYWGQGTLVTVSS VL: DIQMTQSPSSVSASVGDRLTIICRASQDINRWLAWYQQTPGNAPKLLIHSATSLQSGVPSRFSGSGSGTDFTLTINSLQPEDFATYYCQQADSFPLTFGGGTKVEIK | 0.06 | 0.06 | 

Second part, the binder after the results:

fold difference in affinity vs original [1] [fold] | fold affinity vs original [2] [fold] | fold difference in affinity vs original [2] [fold] | Binder
0.86 | 0.86 |  | C5A (XPA23) VH R59N (antibody, V domains shown) VH: EVQLLESGGGLVQPGGSLRLSCAASGFTFSKYFMFWVRQAPGKGLEWVSVISPSGGMTNYADSVKGRFTISRDNSKNTLYLQMNSLRAEDTAVYYCARVGYGGNSDYWGQGTLVTVSS VL: DIQMTQSPSSVSASVGDRLTIICRASQDINRWLAWYQQTPGNAPKLLIHSATSLQSGVPSRFSGSGSGTDFTLTINSLQPEDFATYYCQQADSFPLTFGGGTKVEIK
0.82 | 0.82 |  | C5A (XPA23) VH T58S (antibody, V domains shown) VH: EVQLLESGGGLVQPGGSLRLSCAASGFTFSKYFMFWVRQAPGKGLEWVSVISPSGGMSRYADSVKGRFTISRDNSKNTLYLQMNSLRAEDTAVYYCARVGYGGNSDYWGQGTLVTVSS VL: DIQMTQSPSSVSASVGDRLTIICRASQDINRWLAWYQQTPGNAPKLLIHSATSLQSGVPSRFSGSGSGTDFTLTINSLQPEDFATYYCQQADSFPLTFGGGTKVEIK
0.9 | 0.9 |  | C5A (XPA23) VH T58N (antibody, V domains shown) VH: EVQLLESGGGLVQPGGSLRLSCAASGFTFSKYFMFWVRQAPGKGLEWVSVISPSGGMNRYADSVKGRFTISRDNSKNTLYLQMNSLRAEDTAVYYCARVGYGGNSDYWGQGTLVTVSS VL: DIQMTQSPSSVSASVGDRLTIICRASQDINRWLAWYQQTPGNAPKLLIHSATSLQSGVPSRFSGSGSGTDFTLTINSLQPEDFATYYCQQADSFPLTFGGGTKVEIK
0.13 | 0.13 |  | C5A (XPA23) VH R59S (antibody, V domains shown) VH: EVQLLESGGGLVQPGGSLRLSCAASGFTFSKYFMFWVRQAPGKGLEWVSVISPSGGMTSYADSVKGRFTISRDNSKNTLYLQMNSLRAEDTAVYYCARVGYGGNSDYWGQGTLVTVSS VL: DIQMTQSPSSVSASVGDRLTIICRASQDINRWLAWYQQTPGNAPKLLIHSATSLQSGVPSRFSGSGSGTDFTLTINSLQPEDFATYYCQQADSFPLTFGGGTKVEIK
1.01 | 1.01 |  | C5A (XPA23) VH T58Y (antibody, V domains shown) VH: EVQLLESGGGLVQPGGSLRLSCAASGFTFSKYFMFWVRQAPGKGLEWVSVISPSGGMYRYADSVKGRFTISRDNSKNTLYLQMNSLRAEDTAVYYCARVGYGGNSDYWGQGTLVTVSS VL: DIQMTQSPSSVSASVGDRLTIICRASQDINRWLAWYQQTPGNAPKLLIHSATSLQSGVPSRFSGSGSGTDFTLTINSLQPEDFATYYCQQADSFPLTFGGGTKVEIK
1.14 | 1.14 |  | C5A (XPA23) VH T58R (antibody, V domains shown) VH: EVQLLESGGGLVQPGGSLRLSCAASGFTFSKYFMFWVRQAPGKGLEWVSVISPSGGMRRYADSVKGRFTISRDNSKNTLYLQMNSLRAEDTAVYYCARVGYGGNSDYWGQGTLVTVSS VL: DIQMTQSPSSVSASVGDRLTIICRASQDINRWLAWYQQTPGNAPKLLIHSATSLQSGVPSRFSGSGSGTDFTLTINSLQPEDFATYYCQQADSFPLTFGGGTKVEIK
0.98 | 0.98 |  | C5A (XPA23) VH T58H (antibody, V domains shown) VH: EVQLLESGGGLVQPGGSLRLSCAASGFTFSKYFMFWVRQAPGKGLEWVSVISPSGGMHRYADSVKGRFTISRDNSKNTLYLQMNSLRAEDTAVYYCARVGYGGNSDYWGQGTLVTVSS VL: DIQMTQSPSSVSASVGDRLTIICRASQDINRWLAWYQQTPGNAPKLLIHSATSLQSGVPSRFSGSGSGTDFTLTINSLQPEDFATYYCQQADSFPLTFGGGTKVEIK
0.76 |  | 0.76 | C5A (XPA23) VH R59T (antibody, V domains shown) VH: EVQLLESGGGLVQPGGSLRLSCAASGFTFSKYFMFWVRQAPGKGLEWVSVISPSGGMTTYADSVKGRFTISRDNSKNTLYLQMNSLRAEDTAVYYCARVGYGGNSDYWGQGTLVTVSS VL: DIQMTQSPSSVSASVGDRLTIICRASQDINRWLAWYQQTPGNAPKLLIHSATSLQSGVPSRFSGSGSGTDFTLTINSLQPEDFATYYCQQADSFPLTFGGGTKVEIK
0.12 | 0.12 |  | C5A (XPA23) VH T58D (antibody, V domains shown) VH: EVQLLESGGGLVQPGGSLRLSCAASGFTFSKYFMFWVRQAPGKGLEWVSVISPSGGMDRYADSVKGRFTISRDNSKNTLYLQMNSLRAEDTAVYYCARVGYGGNSDYWGQGTLVTVSS VL: DIQMTQSPSSVSASVGDRLTIICRASQDINRWLAWYQQTPGNAPKLLIHSATSLQSGVPSRFSGSGSGTDFTLTINSLQPEDFATYYCQQADSFPLTFGGGTKVEIK
